Assay results from publication PMC10240976 (2022).

Molecular target: LC3B K65W
Test: ITC

Kd: 22.4 µM
B1: LIR[Sp] peptide (peptide)
peptide: LQFEIDDEMEPLYNQAKQMRYGDY
